US20210395344A1 (TWIST BIOSCIENCE, published 2021)
Like-named read-outs stand apart in the source and are kept apart here.

Columns and labels:
[1] = target: T1, Acro COVID S1 (S1N-C82E8) (SARS-CoV-2, UniProt P0DTC2 16-685); assay: phage ELISA
T1 construct: domain: S1

[2] = target: T1, Acro COVID S1 (S1N-C82E8); assay: phage ELISA; remark: listed apart in the source

Row | Binder | ELISA fold over background [1] [fold over background] | ELISA fold over background [2] [fold over background]
1 | 1-32 (antibody, V domains shown, also called variant 1-32) VH: EVQLLESGGGLVQPGGSLRLSCAASGFTFSSYAMYWVRQAPGKGLEWVSAISGSGGSTFYADSVKGRFTISRDNSKNTLYLQMNSLRAEDTAVYYCTRPPYGDYGDYWGQGTLVTVSS VL: QSALTQPASVSGSPGQSITISCTGTSSDVGGYNLVSWYQQHPGKAPKLMIYEGNKRPSGVSNRFSGSKSGNTASLTISGLQAEDEADYYCCSYAGSSTFPVVFGGGTKLTVL | 11.5 | 11.5
2 | 1-17 (antibody, V domains shown, also called variant 1-17) VH: EVQLLESGGGLVQPGGSLRLSCAASGFTFSSYAMYWVRQAPGKGLEWVSAISGSAGSTYYADSVKGRFTISRDNSKNTLYLQMNSLRAEDTAVYYCARDTNDFWSGYSIFDPWGQGTLVTVSS VL: QSALTQPASVSGSPGQSITISCTGTSSDIGSYNLVSWYQQHPGKAPKLMIYEGTKRPSGVSNRFSGSKSGNTASLTISGLQAEDEADYYCCSYAGSRTYVFGGGTKLTVL | 25.1 | 25.1
3 | 1-42 (antibody, V domains shown, also called variant 1-42) VH: EVQLLESGGGLVQPGGSLRLSCAASGVTFSSYAMSWVRQAPGKGLEWVSAITGSGGSTYYADSVKGRFTISRDNSKNTLYLQMNSLRAEDTAVYYCAKHGSGTIFGVVIAKYYFDYWGQGTLVTVSS VL: QSALTQPASVSGSPGQSITISCTGTSSDVGRYNLVSWYQQHPGKAPKLMIYEGGKRPSGVSNRFSGSKSGNTASLTISGLQAEDEADYYCCSYASSSTLVFGGGTKLTVL | 22.7 | 22.7
